Test results: article PMC3963500

Target: PDGF-BB (UniProt P01127 82-190)
Assay: microcantilever deflection

PDGF-BB, sequence (P01127 82-190): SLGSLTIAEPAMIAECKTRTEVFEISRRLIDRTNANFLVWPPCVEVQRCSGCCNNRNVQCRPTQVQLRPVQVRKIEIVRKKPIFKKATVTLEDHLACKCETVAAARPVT

B1: PDGF aptamer (thiolated) (structured_DNA)
DNA: CACAGGCTACGGCACGTAGAGCATCACCATGATCCTGTG
modifications: thiol (HS-aptamer; printed as 3'T after the sequence), immobilized on Au-coated cantilever
  binding result: binds
